According to the DeepSol protein solubility set:

Assay: soluble on expression in E. coli; label from the status in PepcDB or PDB records

Row | Sequence | soluble on expression in E. coli
1 | MAQNLPTIALLATGGTIAGSGVDASLGSYKSGELGVKELLKAIPSLNKIARIQGEQVSNIGSQDMNEEIWFKLAQRAQELLDDSRIQGVVITHGTDTLEESAYFLNLVLHSTKPVVLVGAMRNASSLSADGALNLYEAVSVAVNEKSANKGVLVVMDDTIFSVREVVKTHTTHVSTFKALNSGAIGSVYYGKTRYYMQPLRKHTTESEFSLSQLKTPLPKVDIIYTHAGMTPDLFQASLNSHAKGVVIAGVGNGNVSAGFLKAMQEASQMGVVIVRSSRVGSGGVTSGEIDDKAYGFITSDNLNPQKARVLLQLALTKTNDKAKIQEMFEEY | soluble
2 | MGSDKIHHHHHHMKISLGPIHYYWSKENIEQFYRRAEHWPVDIVYLGETVCAKRRALRSADWLDIAARLTDAGKEVVLSTLALLEANSDLLQLERICANTHYLVEANDMSAVHLLAGRGPFVIGPHINCYNAETLSLLADLGGRRWIPPVELPATTIAMLQNTRPETMETEAFAYGYLPLSFSARCFTARADNVGKDACELRCIKDPEGRALFTQEQERLFTINGIQLQSGIPCNLLNETVAMSEMGMDIVRISPQLTATESVIRAFHAVLNGEISPPVEYGSPACNGYWYGKPGMQFSPVQGH | not soluble
3 | MRDGEGIWGRGRTGGHAHPKEAMHTTFFILGGTMLIGVISDTHLYDRAFELPKAVFDEFSNVDLIIHCGDVTDKEILDSLKDLAKVVAVKGNMDYLNLPRKEILEINDIKIGVIHGDVVYPRGDRLKLRLLGKEMGVDVLISGHTHTPFIDDCRDILLLNPGSPTVPRCPLKSIMKLSVEDKLEAKLIPIEE | soluble
4 | MAHHHHHHMTSLTEEHEILIDEPPQFTAAAEVIAVGAEEPTVATPEEFTSAQEAGAFLQTPVGTPPATPTSVPTTPSPNEMAAKHARKRWRMEQLALQESVKVVESEPISRRGHSRKAEMSEFAITKAATLNTAPTLLSMSPNIIDTNVTMLGTKRVPLDNFLKVTVLHPKVTPVNLKLEFIDPVLEPVQLSRHQLGNRVTPNEGEGGGMSVKKKRGRKPLVASPSIEEAKAVESGYNAE | not soluble
5 | MMMDLNIRRVVLDVDKGLNRPTLVELAAAIEKVQGVEAVNIIVTEMDMETMGTNITVEGTNINYDELIETIENTGSAIHSVDEIAVGKRLIENVRR | not soluble
6 | MLLSRICRFRMLTRFTRLRPILQLRYLAQNSHIEEEYFEELEPTGIISSHETSQEPPKRTGFRSQNLSEDADFVENVVGALTDQRAKDVFVVKSEETEMTPYTHKIICSAFNSRQASAISENLRSLLKIDGVSNGSMSHARRSTKRSNGWYVSEVERVQVHVMSEECREKYDLEAIWAGDDRILDEIDEEKQKILLPPRR | not soluble
7 | MTLKLTYFDIRGLAEPIRLLLNDQEIPFEDNRISREEWAEMKSTMIFAQLPCLHIGTETIVQSAAILRHLGRIYGLNGSTESETSFIDMFSEGLRDLRTKYFTMIKTDYEDGKEAYITETLPGELLRIEKLFCTFNNGENFVSGDKLSYADYALFELLDIHLILTPTALNGTPALKRFHGRFAERPNMRLYLNKRAELNPFVSGNGKQ | not soluble
8 | MEELIKKAKEYDIDINDLIIDAISRKDPKEAINLRIELAKKYITETEDYLKKGDAVQASEKAYKTAEEIVKALAEKFNIPEYQQALKEGRWYTYWLASAVNRLAKDLGDWVLNGWNSAYILHVWGFHEAKLSTADISEHLRKVKEMLDNVINIIGKLEHHHHHH | soluble
9 | MNKFLGMYNTNTSNGGFVMSEKIYLKIDQQRYVKKPRVTIGDVMTVYCSDKDMIEKIGHITLAEFTLGKYDRKVFDALDVVGIIQKEYPDADIECLGECDFVVEYKKPEKEGTVH | not soluble
10 | MFKKEKGGWFYMAGLKVEWNDWCPGCGNFGILSAEQQAIQELGLDPKKVVLVSGIGCSGKIPHFIRLPASGVHTLHGRALTFAIGIKLANPSLEVIVNGGDGDQLGIGVGHFVSAGRRNVDLTVIVHNNGVYGLTKGQASPTLKLGVKTKSLPKPNINSDINPIALAISSGYTFVARGYAYDVKHLKEIIKKAIKHKGLAMIDVLQPCPTYNDIHTKEYYDKRVYKLDEDPSWDPIVKKPEEMDDKMSKAILKSMEWGDRIPIGIFYQNELVSTYEQRIAERSPSYLDNPPAHDVIEFEGKPTTDVEDILKERRVT | not soluble
11 | MGSDKIHHHHHHMVLPGFFVPVKGWCPLPGVVIFTDVPAVVPATVSAHEAACPAGSPVLPRVSGLPPLRDGSRGRDCPMGASHVWDLPFSPPAGAALPCRRSRSHGLAPAPRVYGMLLVRAWRCSMDRDTVAGLMADALLERRFRHNDGAHPALAALRELAVNQGTDAGRRMVADDPHEVGSPPLSPIDPVELLQHDGALPSLPTVYVELRQRLADPDCSVREAAEVITRDAGLTAWLLRVVNSASYGLSGRVDTVTQAVAVVGMRQLETMVASGMLQSLMRSVPRGLVDMERLWRHSLAVGGAAREIWRLMGRPDPERLFVAGVLHDVGYLAFVMMAPQKAAQLVPRLRASHLPGHLAERELLGFDHAKLGGMLLHKWNMPVPLVMSVLRHHEPESVPSMPEPSVIHLADIVARAMGYGPDAESAVPPLSASAWEASGLTPQHLEAVANAMTAMVDDLGTAVMCTTV | not soluble
12 | MSLGIATFAVVDLETTGNQLDYDEIIQIGITFVRQNQVIDTYHSMIRTDLEIPPFIQALTSIEEEMLVQAPYFNEVADDIYQLIKDCVFVAHNISFDLNFIKKAFEKCNIQFKPKRVMDTLELFKIAFPTDKSYQLSALAESHHIPLNNAHRADEDATTTAKLMIKAFEKFEQLHEGHHHHHH | soluble
13 | MGSDKIHHHHHHMCPLMAENHEVIEEGNSSELPLSAEDAKKLTELAENVLQGWDVQAEKIDVIQGNQMALVWKVHTDSGAVCLKRIHRPEKKALFSIFAQDYLAKKGMNVPGILPNKKGSLYSKHGSFLFVVYDWIEGRPFELTVKQDLEFIMKGLADFHTASVGYQPPNGVPIFTKLGRWPNHYTKRCKQMETWKLMAEAEAAAPFSQLYLQEIDGFIEDGLRIKDRLLQSTYVPWTEQLKKSPNLCHQDYGTGNTLLGENEQIWVIDLDTVSFDLPIRDLRKMIIPLLDTTGVWDDETFNVMLNAYESRAPLTEEQKQVMFIDMLFPYELYDVIREKYVRKSALPKEELESAFEYERIKANALRQLI | not soluble
14 | MSLQSKEDFIEMRVPASAEYVSLIRLTLSGVFSRAGATYDDIEDAKIAVSEAVTNAVKHAYKENNNVGIINIYFEILEDKIKVVISDKGDSFDYETTKSKIGPYDKDENIDFLREGGLGLFLIESLMDEVTVYKESGVTISMTKYIKKEQVRNNGERVEISEGHHHHHH | soluble
15 | MFRGIVQGRGVIRSISKSEDSQRHGIAFPEGMFQLVDVDTVMLVNGCSNTVVRILGDMVYFDIDQALGTTTFDGLKEGDQVNLEIHPKFGEVVGRGGLTGNIKGTALVAAIEENDAGFSVLIDIPKGLAENLTVKDDIGIDGISLPITDMSDSIITLNYSRDLLASTNIASLAKDVKVNVEILNEW | soluble
16 | MGSDKIHHHHHHMIQPRIRQNPFETYEEVAEGFEDLLAPLELFFDREYQGHLDLGTHGTVYSKGTRDAEAFLRPLWGLGPYVTQNESEYLNDFLTGIIEGTDPESSSYWGKTKDYDQLIVEMAALSTFLLLNKEKTWDQLTKEQQNNLHSWLIQANENIIPPNNWHFFRVLLNLAMKHCEMPYSKEQIAVDLAVIDRFYVGNGWYYDGVETQVDYYVSFAIHYYSLLYCRFAPEDTARVAIMKERATLFAQEFKYWFTQPGEAIPFGRSLTYRFAQVSFFSALVFADVEALPWGEIKGLISRHLHQWMNKDIFTTDGLLSVGYDYQNMVFAEGYNGPGSPYWAFKTFILLAVPKDHPYWQAETQPISFPEKHLPSPESRNYYQVNDAGTHGLMFPAGQFINYQAHAHDKYSKFVYSSHFGFSTIKSDYWYYEGAYDNCLALAEDDHYFRTKGLDDQYEILDDRIIHQWHPWSDVAIKTTIVPLEGQHLRIHEIETQRALVAYEGGFSIPLFDEKVTCVSDQMAEVKNAKGVSKVENINGFSEAAIIRTEPNTNLLYPLTELPYLKANLSKGKHLLISLVTGVLPNEQIEPVKVRLKENQLLVEEKVVILGN | not soluble
17 | MGSDKIHHHHHHMHFDAETVTHRGGLSKLRSLTKVNPRLAPNLAKTMLGGPRDHAVVEAFNAHAADKGFEFTSTWASNNIPFVTPLLRDFAAKRPAGEAIRYMEIGAYEGRNLAFMDWLLPDRLAVTVIDPWFDEALNPEEKYHAVEPRFRRNMDKCGFKSLSTHKGFSTYVLPQMLERGEQFDLIYVDGSHTALAVLIDLCFCASLLSVGGMMVLDDYWHDISEIGGPGVKQAVDQFHAAFGRYFEIAAVYRQVALVKTSEIPR | not soluble
